In patent US20220112268A1:

What was measured:
[1] = target: T cell receptor of OT-I T cells (cognate to the SIINFEKL tetramer), on OT-I T cells; assay: labeled NP incubated with an OT-I/OT-II T cell mixture (1:1); reference free αPD-1 (FIG. 7B)
[2] = target: PD-1 on PD-1-positive cells (EL4 cells) (UniProt Q02242); assay: inhibition of PD-L1-human Fc (10 µg/mL) binding to EL4 cells, flow cytometry, competitor PD-L1-human Fc
[3] = target: PD-1 on PD-1-positive cells (EL4 cells) (UniProt Q02242); assay: direct binding of Alexa Fluor 647-labeled sample to EL4 cells, flow cytometry, fraction of positive cells
[4] = target: PD-1 on PD-1-positive cells (EL4 cells) (UniProt Q02242); assay: inhibition of PD-L1-human Fc binding to EL4 cells; reference intact αPD-1
[5] = target: PD-1 on PD-1-positive cells (EL4 cells) (UniProt Q02242); assay: inhibition of PD-L1-human Fc binding to EL4 cells; reference soluble αPD-1-iTEP fusion
[6] = target: PD-1 on PD-1-positive cells (EL4 cells) (UniProt Q02242); assay: direct binding to EL4 cells, flow cytometry; reference intact αPD-1

Chain of UniProt Q02242 (Q02242 25-288 limits assumed): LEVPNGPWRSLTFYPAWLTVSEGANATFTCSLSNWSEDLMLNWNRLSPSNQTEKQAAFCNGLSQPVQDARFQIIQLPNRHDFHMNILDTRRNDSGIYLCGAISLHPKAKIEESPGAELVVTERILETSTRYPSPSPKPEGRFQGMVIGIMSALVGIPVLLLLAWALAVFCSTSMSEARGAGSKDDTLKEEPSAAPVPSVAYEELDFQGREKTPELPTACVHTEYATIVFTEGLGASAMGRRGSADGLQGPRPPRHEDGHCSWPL

Row | Substance | targeting efficiency (OT-I:OT-II ratio of guided NPs divided by the OT-I:OT-II ratio of free αPD-1) [1] | EC50 [2] [nM] | EC50 [3] [nM] | fold lower inhibition capacity than intact αPD-1 [4] [fold] | fold higher inhibition capacity than the soluble αPD-1-iTEP fusion [5] [fold] | fold smaller EC50 than intact αPD-1 [6] [fold] | fold stronger avidity than intact αPD-1 [6] [fold]
1 | SIINFEKL tetramer-guided αPD-1 NP, nanoparticle assembled from iTEP-αPD-1 and iTEP-tetramer (H2-Kb/SIINFEKL) mixed at a 1-to-10 ratio (from UniProt P22629 37-163; P01901 22-305) | 37.3 |  |  |  |  |  | 
2 | intact αPD-1 (anti-programmed death-1 antibody, RMP1-14 clone, IgG from hybridoma ascites) |  | 1320 | 110 |  |  |  | 
3 | soluble αPD-1-iTEP fusion, αPD-1(scFv) fused to the amphiphilic diblock iTEP (GAGVPG)70-(GVLPGVG)56-(GC)4 |  | 4590 | 400 | 3 |  |  | 
4 | αPD-1 NP, the nanoparticle form of the αPD-1-iTEP fusion, self-assembled and crosslinked by disulfide bonds |  | 1190 | 39 |  | 3 | 3 | 4
5 | αPD-1 scFv (recombinant single-chain variable fragment of the anti-PD-1 antibody clone RMP1-14), NH2-Histag(H6)-(GGGSG)3-VH-(GGGSG)4-VL-COOH |  | 4160 | 320 | 3 |  |  | 
